Results on nine molecules are retold here after patent US20250382354A1 (INSTITUTE FOR RESEARCH IN BIOMEDICINE IRB, published 2025).

Substitutions are numbered along the chain they refer to.

What is called EC50 is the midpoint of the concentration-response curve. A lower EC50 goes with greater potency. As a reminder, the Kd is the concentration at which binding is half-saturated. A lower Kd goes with tighter binding.

For one test, the target named is SADS FP peptide (SADS). Description: peptide ELISA. Background: ELISA stands for enzyme-linked immunosorbent assay.
Another test has as its target T1, HCoV-229E S ectodomain (HCoV-229E).
T1 construct: range 17-1142
Description: ELISA on coated S.

Test [1] deals with C-terminally truncated SARS-CoV-2 S protein (pSARS-CoV2-Strunc), ancestral (SARS-CoV-2, UniProt P0DTC2 14-1273). Description: cell-based or functional assay.
The target in test [2] is SARS-CoV-2 SD1-RBD Ancestral (SARS-CoV-2 (ancestral), UniProt P0DTC2 319-591). The test can be described thus: SPR, antigen immobilized, Fab injected. A general note: Surface plasmon resonance follows binding to a sensor surface in real time, without labels.
The target in a further test is HKU24 HR2 peptide (HKU24). Description: peptide ELISA.
The target of the next test is Eidolon HR2 peptide (Eidolon). The test can be described thus: peptide ELISA.
A further test has as its target Erinaceus HR2 peptide (Erinaceus). Description: peptide ELISA.

B1: fp.005 (antibody, V domains shown)
VH: VQLVESGGGVVQPGNSLRLSCAASGFRFNNYAMHWVRQAPGKGLEWVAIISYEARNEKYADSVKGRFSISRDNAKNTLYLQMNSLRADDTGVYYCARDLFLSDYDTSGYDRTRGGFDYWGQGALVTVSS
VL: EIVMTQSPATLSVSPGERATLSCRASQSVSNGLAWYQHRFGQPPRLLIYGASTRATGIPTRFSGSGSGTEFTLTISSLQSEDFAVYYCQQYDDWPLITFGGGTKVEIK
As for B1, the EC50 with SADS FP peptide worked out at 0.0252 µg/mL; with HCoV-229E S ectodomain, 0.0416 µg/mL. The “Ancestral Pseudovirus IC50” value in test [1] is 9.09 µg/mL.

B2: sd1.040 Fab (Fab, V domains shown)
VH: QVQLVQSGAEVKKPGASVKVSCKASGYTFTSFYIHWVRQAPGQGLEWMGIIDPSGGSTSYPQKFQGRVTMTRDTSTSTVYMDLSSLRSEDTAVYYCTRDGSAGDNSWFDPWGQGTLVTVSS
VL: not shown
B2: in test [2], the dissociation constant (Kd) was 4.2 nM.

B3: hr2.023 (antibody, V domains shown)
VH: QVQLVQSGAEVKKPGASVKVSCRASENIFSDSYLHWVRQAPGQGLEWMGIITPSGDKTFYAQQFQGRLTMTRDTPTNTLHMDLRGLTSADTAIYYCARQATKGGWDYWGQGTLVTVSS
VL: EIVLTQSPGTLSLSPGESATLSCRASQSVTRNYLAWYQQQPGQAPRLLIYGASNRATGVPDRFSGSGSGTDFTLTISRLEPEDFAVYYCQQYGSSPPTFIFGPGTKVDIK
As to B3, the EC50 was determined as 0.0124 µg/mL with HKU24 HR2 peptide and 0.126 µg/mL with Eidolon HR2 peptide.

B4: hr2.016 (antibody, V domains shown)
VH: EVQLLESGGGLVQPGGSLRLSCAASGFMFSKYAMTWVRQTPGKGLEWVSVISGGGGSTYYADSVKGRFTISRDNSKNTLYLQMNSLRAEDTAVYYCAKLLVVFVIDYWGQGALVTVSS
VL: EIVLTQSPGTLSLSPGERATLFCRASQSVSSNLAWYQQKPGRAPRLLISGASSRATGIPDRFSGSGSGTDFTLTISRLEPEDFAVYYCQQYGSSPPTFGQGTKVEIK
As for B4, a half-maximal response in the test with HKU24 HR2 peptide (EC50) required 0.00958 µg/mL. This molecule also yielded an EC50 with Eidolon HR2 peptide of 0.033 µg/mL. In test [1], the “Ancestral Pseudovirus IC50” value was determined as 0.01 µg/mL and the “Ancestral Pseudovirus IC50 (on cells with [not given])” value turned out to be 0.012 µg/mL.

B5: hr2.012 (antibody, V domains shown)
VH: QVQLVQSGAEVKKPGASVKVSCKASGYTFTSHYIHWVRQAPGQGLEWMGIIKPSGGNTIYAQTFQGRVTMTRDTSTSTVYMELRSLTSDDTAVYYCARDQDHGLQRWGQGTLVTVSS
VL: QSVLTQPPSVSAPPGQKVTISCSGSSSNIGNNFVSWYQQLPGTAPKLLIYDNIERPSGIPDRFSGSRSGTSATLGITGLQTGDEADYYCGTWDTSLGAWVFGGGTKVTVL
Take B5: the EC50 with HKU24 HR2 peptide amounted to 0.0249 µg/mL; with Eidolon HR2 peptide it was 0.463 µg/mL. For the same molecule, the “Ancestral Pseudovirus IC50” value in test [1] is 1.72 µg/mL.

B6: hr2.013 (antibody, V domains shown)
VH: QVQLVQSGAEVKKPGASVKISCKASGYTFTNNYMNWVRQAPGQGLEWMGIIKPSSGSTIYAHKFQGRVTMTRDTSTSTVYMEVRSLTSEDTAVYYCARDQDHGLQNWGQGTLVTVSS
VL: B5 VL with P13A, P14S, S21Y, G30A, N31S, L40F, I53N, E54Q, V107L
As for B6, the EC50 in the test with HKU24 HR2 peptide was 0.027 µg/mL; in the test with Eidolon HR2 peptide, 0.186 µg/mL.

B7: hr2.025 (antibody, V domains shown)
VH: EVQLVQSGAEVKKPGESLKISCKGSGYSFTNYWIAWVRLMPGKGLEWMGFIFPGDSDTRYSPSFQGQVTISADKSISTAYLQWSSLKASDTAIYYCARRRGNSGNHDPYGMDVWGHGTTVTVSS
VL: not shown
Turning to B7, the EC50 was found to be 0.0719 µg/mL with HKU24 HR2 peptide and 2.92 µg/mL with Eidolon HR2 peptide.

B8: hr2.027 (antibody, V domains shown)
VH: B7 VH with T30A, S77T, Q82H, Y95F
VL: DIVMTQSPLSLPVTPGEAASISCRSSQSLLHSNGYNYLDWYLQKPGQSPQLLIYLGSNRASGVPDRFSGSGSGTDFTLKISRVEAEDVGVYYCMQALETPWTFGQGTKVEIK
On to B8, for which the EC50 is 0.0919 µg/mL with HKU24 HR2 peptide and 1.21 µg/mL in the test with Eidolon HR2 peptide.

B9: hr2.014 (antibody, V domains shown)
VH: QVQLVQSGAEVKKPGASVKVSCKASGYTFTTYAVHWLRQVPGQRPEWIGWINAANGNTKYSEKFQGRVTITRDTSASTAYMDLRSLRSEDTAVYYCARLLVVRDDPYYYGMDVWGQGTTVTVSS
VL: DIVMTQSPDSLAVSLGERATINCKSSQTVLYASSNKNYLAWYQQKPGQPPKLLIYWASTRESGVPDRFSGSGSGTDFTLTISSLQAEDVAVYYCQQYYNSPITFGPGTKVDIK
For the molecule B9, in the test with Erinaceus HR2 peptide, the concentration giving a half-maximal response (EC50) came to 0.117 µg/mL. Also, the “Ancestral Pseudovirus IC50” value in test [1] is 0.355 µg/mL.
